Columns and labels:
Type in all cases: cell-based, human
[1] = test system: SKW3 T cells; assay: Homotypic aggregation assay, SKW3; settings: after four hours, Ig and Fab′ at 1 μg/ml
Description: Aggregation assays were done in duplicate, with and without addition of PMA (50 ng/ml). 3×10^5 cells in RPMI 1640 medium with 10% fetal calf serum were added in a flat-bottomed 96-well microtest plate. When one antibody was tested in an experiment, 50 μl of purified antibody or hybridoma supernatant were added to the wells (PMA was added at the same time to selected wells). When two antibodies were tested in the same experiment, the antibodies were added sequentially to the cells at room temperature and incubated for 30 minutes each (incubation for 15 minutes at 37° C. produced the same results), and then the cells were incubated at 37° C. […] After incubation with the antibody or antibodies, cells were uniformly resuspended and then incubated at 37° C. for 4 to 24 hours. Aggregation scoring was done with an inverted microscope. In each experiment, the efficacy of the PMA stimulation was checked in parallel by stimulating Raji cells with an equal amount of PMA and determining the amount of aggregation blockable by monoclonal antibodies to CD18, CD11 a, and ICAM-1 molecules.
To confirm that aggregation was induced by the anti-ICAM-R antibodies ICR-2.1, ICR-1.1, and ICR-3.1 the aggregation assays were performed using both the whole immunoglobulin (ICR-1.1-Ig) and Fab′ fragments (ICR-1.1-Fab′) purified from the same anti-ICAM-R monoclonal antibody (ICR-1.1). […]

[2] = test system: PBMC; assay: PBMC activation markers on immobilized antibody; settings: immobilized antibody 10 μg/well; no other stimuli
Description: Anti-ICAM-R monoclonal antibodies ICR-1.1 and ICR-4.2 were each tested for the ability to induce PMBC activation in the absence of other inducing stimuli. Monoclonal antibodies ICR-1.1 or ICR-4.2 (or control monoclonal antibodies) were added (10 μg/well in PBS) to individual wells of a 96-well flat bottom tissue culture plate and incubated for 3 hours at 37° C. in a 5% CO2 incubator. The plates were washed 3 times with sterile PBS to remove unbound antibody and freshly isolated PBMC were immediately added to a final concentration of 2×10^5 cells/well in a volume of 200 μl media. The plates were then incubated for either 1 or 3 days at which time the cells cultured in the presence of different antibodies were removed, washed as described above in PBS containing 0.01% sodium azide and 1% BSA (FACS buffer) and stained with either FITC (Becton Dickinson)-conjugated negative control antibodies or a panel of FITC-conjugated anti-CD69, anti-transferrin receptor and anti-IL-2 receptor antibodies. Results were obtained by FACScan analysis. […] However, while increased expression of these lymphocyte activation markers was observed after 1 and 3 days this increased expression was unaccompanied by increased cell size.

[3] = test system: CD4+ CD45RO+ / CD45RA+ T cells and plastic adherent cells; assay: SEA proliferation of memory or resting T cells with accessory cells; settings: immobilized antibody 3 hours
Excerpt: Because both T cells and accessory cells express high levels of ICAM-R, the inhibition of cell-cell contact dependent T cell activation during the response to SEA by ICR-1.1 could be mediated by ICR-1.1 binding to T cells, accessory cells or both. Additionally, because ICAM-R and ICAM-1 differ markedly in their expression on nonactivated T cells, it is possible that anti-ICAM-1 and anti-ICAM-R may inhibit the SEA response by targeting T cell subsets in different states of activation. Because the role of ICAM-R may differ in naive and memory cells, the ability of anti-ICAM-R antibodies to inhibit SEA induced proliferation of CD4^+ CD45RO^+ (“memory”) cells, or CD4^+ CD45RA^+ (“resting”) cells was tested. […] nonadherent PBMC (10^7 cells/ml) were incubated for 1 hour at 4° C. with a cocktail of antibodies (1μg/ml each) containing anti-CD8, anti-CD19, anti-CD11b, anti-HLA-DR (Becton Dickinson) and either anti-CD45RO (Amac) (to obtain CD45RA^+ CD4^+ cells), or anti-CD45RA (Amac) (to obtain CD45RO^+ CD4^+ cells) in coating medium. The cell suspension was washed twice with coating medium to remove unbound antibody and incubated with goat anti-mouse IgG coated magnetic beads. Cells bound to magnetic beads were then removed from the suspension using a strong magnet. […] Two hundred thousand purified memory T cells, resting T cells or plastic adherent cells were incubated on immobilized ICR-1.1, anti-ICAM-1 antibody LB-2 or anti-HLA-I antibody p10.1 (10 μg/ml) (Gerald Nepom, Virginia Mason Research Center, Seattle, Wash.) for 3 hours. The antibody treated memory or resting T cells were removed to clean wells and admixed with 2×10^4 plastic adherent cells. Antibody treated accessory cells were admixed with either untreated memory T cells or untreated resting T-cells. Each reconstituted culture was then stimulated with SEA (10 pg/ml). […]

[4] = test system: resting PBLs; assay: T cell receptor induced tyrosine phosphorylation after pretreatment
Description: Briefly, resting PBLs were isolated and treated with ICR-1.1 or isotype matched control antibody as described above in Section I. After the cells were removed from antibody, they were washed one time in PBS, resuspended in PBS to a concentration of 1×10^6 cells/ml, and either treated or not treated with antisera to the T cell receptor (G19-4) for 2 minutes at 37° C. The cells were then spun down and lysed in boiling 2×SDS-sample buffer, boiled a further 5 minutes and resolved on 10% SDS-PAGE. Proteins were transferred to nitrocellulose and blotted with the 4G10 anti-phosphotyrosine antibody as described. […] This is consistent with the result that CD69 upregulation in these cells is also normal (Section L above), since CD69 expression requires PLC-gamma stimulated PKC activity and PLC-gamma activation requires tyrosine phosphorylation.

B1: ICR-1.1: anti-ICAM-R monoclonal antibody, IgG2a, domain 1, ATCC HB 11053 (antibody, V domains shown)
VH: QVQLQQSGAELAKPGASVKMSCKASGYTFTVYWMHWVKQRPGQGLEWIGYINPNTDYTEYNQRFQDKATLTADKSSSTAYMQLSSLTSEDSAVYYCARWGGNSYGLDYWGQGTSVTVSS
VL: QIVLTQSPALMSASPGEKVTMTCSASSSVSYIYWYQQKPRSSPKPWIYLTSNLASGVPARFSGSGSGASYSLTISIMEAEDAATYYCQQWKSIPLTFGAGTKLELK
Aggregation [1]: 3 (50 to 100% cells were in loose clusters)
PBMC activation marker expression after 1 day [2]: Expression of CD69 and the transferrin receptor but not the IL-2 receptor increased
PBMC activation marker expression after 3 days [2]: increased levels of cell surface expression of both the transferrin receptor and IL-2 receptor but not CD69
CD45RA+ cell proliferation, pretreatment of adherent cells [3]: modest inhibition of CD45RA^+ cell proliferation
SEA response, pretreatment of CD45RA+ T cells (FIG. 14) [3]: did not affect SEA responses
SEA proliferation, pretreatment of T cells or accessory cells (FIG. 13) ([3]; versus p10.1 control): blocked proliferative responses to SEA
tyrosine phosphorylation in response to G19-4 after pretreatment [4]: there was an induction of tyrosine phosphorylation in response to G19-4 treatment

Reference: patent US20040248211A1, “ICAM-related protein” (priority 1992, published 2004)
